Assay results published in patent US20080020399A1.

Columns and labels:
[1] = target: rat liver insulin receptor purified by wheat germ lectin affinity chromatography (rat) (UniProt P15127); assay: cell-based or functional assay
[2] = system: biotinylated hIRS-1-p30 (domain D516-P777 of human IRS-1)
Chain of biotinylated hIRS-1-p30 (domain D516-P777 of human IRS-1) (chain, as listed by the source): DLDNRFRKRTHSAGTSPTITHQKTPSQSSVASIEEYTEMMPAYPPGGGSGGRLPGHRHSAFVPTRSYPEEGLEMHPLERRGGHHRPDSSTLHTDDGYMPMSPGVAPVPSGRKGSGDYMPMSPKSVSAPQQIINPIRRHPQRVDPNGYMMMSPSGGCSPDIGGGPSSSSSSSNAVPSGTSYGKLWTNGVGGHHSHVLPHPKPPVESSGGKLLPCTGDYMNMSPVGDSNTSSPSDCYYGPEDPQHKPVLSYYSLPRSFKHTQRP

Chain of rat liver insulin receptor purified by wheat germ lectin affinity chromatography (rat) (P15127 27-1383 limits assumed, form in doubt): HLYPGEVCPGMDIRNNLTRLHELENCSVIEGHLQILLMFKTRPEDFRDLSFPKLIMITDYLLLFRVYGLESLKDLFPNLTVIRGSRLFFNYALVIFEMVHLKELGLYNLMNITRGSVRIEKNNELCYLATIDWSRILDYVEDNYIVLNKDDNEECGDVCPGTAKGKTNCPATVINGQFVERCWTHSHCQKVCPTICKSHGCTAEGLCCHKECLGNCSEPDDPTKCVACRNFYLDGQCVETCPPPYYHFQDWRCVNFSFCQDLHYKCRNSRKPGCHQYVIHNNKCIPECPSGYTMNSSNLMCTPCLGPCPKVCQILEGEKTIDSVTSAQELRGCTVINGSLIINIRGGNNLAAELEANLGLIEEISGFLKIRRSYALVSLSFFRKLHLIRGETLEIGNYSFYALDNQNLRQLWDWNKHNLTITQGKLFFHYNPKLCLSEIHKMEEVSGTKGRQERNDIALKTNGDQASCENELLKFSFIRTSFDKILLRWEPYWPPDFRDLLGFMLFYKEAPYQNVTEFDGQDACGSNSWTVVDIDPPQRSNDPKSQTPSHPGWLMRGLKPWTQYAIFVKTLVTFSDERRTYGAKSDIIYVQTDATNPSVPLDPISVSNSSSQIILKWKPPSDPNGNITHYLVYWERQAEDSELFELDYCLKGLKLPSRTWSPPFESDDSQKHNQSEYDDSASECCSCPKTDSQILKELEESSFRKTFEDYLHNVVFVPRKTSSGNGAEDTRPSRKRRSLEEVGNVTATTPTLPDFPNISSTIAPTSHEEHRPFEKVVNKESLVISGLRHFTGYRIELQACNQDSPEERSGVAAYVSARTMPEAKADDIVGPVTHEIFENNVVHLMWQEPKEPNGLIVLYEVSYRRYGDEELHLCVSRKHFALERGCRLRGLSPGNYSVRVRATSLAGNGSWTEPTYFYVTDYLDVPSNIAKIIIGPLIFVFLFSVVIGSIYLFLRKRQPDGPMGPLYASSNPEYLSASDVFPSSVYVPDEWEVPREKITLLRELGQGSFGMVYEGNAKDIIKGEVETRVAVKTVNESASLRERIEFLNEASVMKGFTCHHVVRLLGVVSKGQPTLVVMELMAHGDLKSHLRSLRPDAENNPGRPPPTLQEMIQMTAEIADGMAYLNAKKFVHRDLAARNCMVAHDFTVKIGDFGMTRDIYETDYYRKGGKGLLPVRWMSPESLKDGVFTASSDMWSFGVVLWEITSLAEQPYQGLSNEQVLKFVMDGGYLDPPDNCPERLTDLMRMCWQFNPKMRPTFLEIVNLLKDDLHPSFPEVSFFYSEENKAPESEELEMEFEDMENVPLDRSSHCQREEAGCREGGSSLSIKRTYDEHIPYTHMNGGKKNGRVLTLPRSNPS

| ALPHAScreen readout of tyrosine phosphorylation of 85 nM biotinylated IRS fragment by the insulin-stimulated receptor [1] | Substance | phosphorylation of the biotinylated IRS-1 fragment (ALPHAScreen, p-Ser antibody) [2] |
| --- | --- | --- |
| 10 nM | human insulin (from UniProt P01308 25-54; P01308 90-110) (ligand) |  |
|  | protein kinase C (serine kinase PKCδ) | can be phosphorylated in the biotinylated state by the serine kinase PKCδ |
